Source: PMC6846668 (Nucleic Acids Research, 2019)

T1: PolIV (Escherichia coli, UniProt Q47155)
T1 sequence (Q47155 1-351): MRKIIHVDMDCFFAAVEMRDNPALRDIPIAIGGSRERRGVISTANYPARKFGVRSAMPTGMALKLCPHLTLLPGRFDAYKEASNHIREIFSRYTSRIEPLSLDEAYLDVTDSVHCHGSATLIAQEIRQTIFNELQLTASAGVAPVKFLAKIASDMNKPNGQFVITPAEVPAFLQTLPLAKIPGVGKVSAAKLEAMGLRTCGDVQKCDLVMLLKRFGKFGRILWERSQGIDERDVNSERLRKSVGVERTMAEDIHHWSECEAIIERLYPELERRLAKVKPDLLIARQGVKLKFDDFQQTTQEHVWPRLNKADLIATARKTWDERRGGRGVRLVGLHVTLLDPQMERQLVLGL


Legend:
[1] = target: T1, PolIV; assay: primer extension, gel; type: biochemical; conditions: 6FAM primer/template, 2.5 mM MnCl2, pH 8.0, 37°C
[2] = substrate: Nc1ccn([C@@H]2O[C@H](COP(=O)(O)OP(=O)(O)OP(=O)(O)O)[C@@H](O)[C@H]2O)c(=O)n1; assay: primer extension, Lineweaver-Burk; type: biochemical, Mycolicibacterium smegmatis; conditions: 6FAM 15mer primer/50mer template, 2.5 mM MnCl2, pH 8.0, 37°C

| Molecule | primer extension, gel [1] | Km [2] [µM] | kcat [2] [s⁻¹] | kcat/Km [2] [M⁻¹ s⁻¹] |
| --- | --- | --- | --- | --- |
| Nc1ccn([C@H]2C[C@H](O)[C@@H](COP(=O)(O)OP(=O)(O)OP(=O)(O)O)O2)c(=O)n1 [dCTP] | mutations did not show a significant difference in the ability of PolIV to incorporate dCTP | – | – | – |
| MsDpo4 (Mycolicibacterium smegmatis MC2 155) (protein) MTKWVLHVDLDQFLASVELRRRPDLRGQPVIVGGSGDPSEPRKVVTCASYEAREFGVHAGMPLRAAARRCPDATFLPSDPAAYDEASEQVMGLLRDLGHPLEVWGWDEAYLGADLPDESDPVEVAERIRTVVAAETGLSCSVGISDNKQRAKVATGFAKPAGIYVLTEANWMTVMGDRPPDALWGVGPKTTKKLAAMGITTVADLAVTDPSVLTTAFGPSTGLWLLLLAKGGGDTEVSSEPWVPRSRSHVVTFPQDLTERREMDSAVRDLALQTLAEIVEQGRIVTRVAVTVRTSTFYTRTKIRKLPAPSTDAGQIVDTALAVLDQFELDRPVRLLGVRLELAMDDVPRPAVTAGT | – | 55.3 ± 4.0 | 0.011 ± 0.00117 | 167 ± 16.7 |
| MsDpo4 (Mycolicibacterium smegmatis MC2 155; L14Y) (protein) MTKWVLHVDLDQFYASVELRRRPDLRGQPVIVGGSGDPSEPRKVVTCASYEAREFGVHAGMPLRAAARRCPDATFLPSDPAAYDEASEQVMGLLRDLGHPLEVWGWDEAYLGADLPDESDPVEVAERIRTVVAAETGLSCSVGISDNKQRAKVATGFAKPAGIYVLTEANWMTVMGDRPPDALWGVGPKTTKKLAAMGITTVADLAVTDPSVLTTAFGPSTGLWLLLLAKGGGDTEVSSEPWVPRSRSHVVTFPQDLTERREMDSAVRDLALQTLAEIVEQGRIVTRVAVTVRTSTFYTRTKIRKLPAPSTDAGQIVDTALAVLDQFELDRPVRLLGVRLELAMDDVPRPAVTAGT | – | 59.54 ± 13.4 | 0.00167 ± 0.000167 | 26.7 ± 5 |
